biological target: gp120; experiment: ELISA; geometric mean over gp120 from 7 HIV strains

Binder | EC50 [nM]
PGT121.42 (antibody, V domains shown) VH: QMQLQESGPGLVKPSETLSLTCSVSGASISDSYWSWIRRSPGKGLEWIGYVHKSGDTNYNPSLKSRVHLSLDTSKNQVSLSLSSVTAADSGKYYCARTLHGRRIYGIVAFNEWFTYFYMDVWGKGTQVTVSS VL: SDISVAPGETARISCGEKSLGSRAVQWYQHRAGQAPSLIIYNNQDRPSGIPERFSGSPDSPFGTTATLTITSVEAGDEADYYCHIWDSRVPTKWVFGGGTTLTVLG | 1.57
PGT121.61 (antibody) heavy: QMQLQESGPGLVKPSETLSLTCSVSGASISDSYWSWIRRSPGKGLEWIGYVHKSGDTNYNPSLKSRVHLSLDTSKNQVSLSLTGVTAADSGKYYCARTLHGRRIYGIVAFNEWFTYFYMDVWGTGTQVTVSSASTKGPSVFPLAPSSKSTSGGTAALGCLVKDYFPEPVTVSWNSGALTSGVHTFPAVLQSSGLYSLSSVVTVPSSSLGTQTYICNVNHKPSNTKVDKKVEPKSCDKTHTCPPCPAPELLAGPDVFLFPPKPKDTLMISRTPEVTCVVVDVSHEDPEVKFNWYVDGVEVHNAKTKPREEQYNSTYRVVSVLTVLHQDWLNGKEYKCKVSNKALPLPEEKTISKAKGQPREPQVYTLPPSREEMTKNQVSLTCLVKGFYPSDIAVEWESNGQPENNYKTTPPVLDSDGSFFLYSKLTVDKSRWQQGNVFSCSVLHEALHSHYTQKSLSLSPGK light: SDISVAPGETARISCGEKSLGSRAVQWYQHRAGQAPSLIIYNNQDRPSGIPERFSGSPDSRPGTTATLTITSVEAGDEADYYCHIWDSRVPTKWVFGGGTKLTVLGQPKAAPSVTLFPPSSEELQANKATLVCLISDFYPGAVTVAWKADSSPVKAGVETTTPSKQSNNKYAASSYLSLTPEQWKSHRSYSCQVTHEGSTVEKTVAPTECS | 1.65
PGT121.60 (antibody) heavy: QMQLQESGPGLVKPSETLSLTCSVSGASISDSYWSWIRRSPGKGLEWIGYVHKSGDTNYNPSLKSRVHLSLDTSKNQVSLSLTGVTAADSGKYYCARTLHGRRIYGIVAFNEWFTYFYMDVWGTGTQVTVSSASTKGPSVFPLAPSSKSTSGGTAALGCLVKDYFPEPVTVSWNSGALTSGVHTFPAVLQSSGLYSLSSVVTVPSSSLGTQTYICNVNHKPSNTKVDKKVEPKSCDKTHTCPPCPAPELLAGPDVFLFPPKPKDTLMISRTPEVTCVVVDVSHEDPEVKFNWYVDGVEVHNAKTKPREEQYNSTYRVVSVLTVLHQDWLNGKEYKCKVSNKALPLPEEKTISKAKGQPREPQVYTLPPSREEMTKNQVSLTCLVKGFYPSDIAVEWESNGQPENNYKTTPPVLDSDGSFFLYSKLTVDKSRWQQGNVFSCSVLHEALHSHYTQKSLSLSPGK light: not shown | 1.79
PGT121.65 (antibody, V domains shown) VH: QLQLQESGPGLVKPSETLSLTCSVSGASISDAYWSWIRRSPGKGLEWIGYVHKSGDTNYNPSLKSRVHLSLDTSKNQVSLSLTGVTAADSGKYYCARALHGRRIYGIVAFNEWFTYFYMDVWGTGTQVTVSS VL: SDISVAPGETARISCGEKSLGSRAVQWYQHRAGQAPSLIIYNNQDRPSGIPERFSGSPDSRPGTTATLTITSVEAGDEADYYCHIWDSRVPTKWVFGGGTKLTVLG | 2.14
